Results from patent publication US20260242448A1 (INSTITUTE OF MICROBIOLOGY CHINESE ACADEMY OF SCIENCES, published 2026).

Legend:
[1] = molecular target: T1, S protein of the SARS-CoV-2 prototype strain on pseudo-virus (SARS-CoV-2 prototype strain, UniProt P0DTC2 14-1273); assay: cell-based or functional assay
[2] = molecular target: T1, S protein of the SARS-CoV-2 prototype …; assay: cell-based or functional assay; remark: listed apart in the source
[3] = molecular target: T2, RBD of the S protein of the 2019 original strain (2019-nCoV) (SARS-CoV-2 (2019-nCoV original strain), UniProt P0DTC2 319-541); assay: ELISA on plate-coated RBD (1 µg/mL), HRP anti-human Fc detection, OD450
T2 construct: domain: RBD; also called 2019-nCoV RBD; SARS-CoV-2 RBD

| Binder | Neutralization Effects (IC50) against SARS-CoV-2 pseudo-viruses [1] [ng/mL] | Neutralization activity (IC50) against pseudo-virus [2] [ng/mL] | EC50 [3] [nM] |
| --- | --- | --- | --- |
| monoclonal antibody L4.65 (antibody, V domains shown, also called monoclonal antibody 65; 65IgG) VH: QITLKESGPTLVKPTQTLTLTCTFSGFSLSTSGVGVAWIRQPPGKALEWLALIYWDNDKRSSPSLNNRLTITKDTSKNQVVLTMTNMDPEDTATYYCAHFFSHYDSSNYYYGSWFDPWGQGTLVTVSS VL: EIVLTQSPGTLSLSPGERATLSCRASQSFDSRYLGWYQQKSGQAPRLLIYGASSRATGIPDRFSGSGSGTDFTLTISRLEPEDFAVYYCQQFGDSPFTFGQGTKLEIKR | 0.709 | 0.97 | 0.0173 |
| monoclonal antibody CoV56 (antibody, V domains shown, also called monoclonal antibody 56; 56IgG) VH: EVQLVESGGGVVQPGGSLRLSCAVSGFTFDDYAMHWVRQAPGKGLDWVSLISGDGSYTYYADSVKGRFTISRDSSKNSLYLQMNSLRTEDTALYYCAKAQTPTLWWLQDAFDIWGQGTMVTVSS VL: not shown | 8380 | > 2000 | 0.0418 |
